Results on six molecules are retold here after publication PMC12368724, “Impact of Changes in Buffer Ionic Concentration and Mutations on a GH1 β‑Glucosidase Homodimer” (ACS Omega, 2025).

For data set [1], the target named is T1, GH1 β-glucosidase from Spodoptera frugiperda (Sfβgly), wild-type (Spodoptera frugiperda). The experiment in a line: SEC; dimer to monomers; 100 mM phosphate buffer pH 6 (P100), 5 °C; two Superdex 200 HR10/300 GL columns in tandem; KD is the slope of [M]^2 versus [D] from peak areas at several protein concentrations. To be noted: both partners purified. In general terms: SEC sorts molecules by how far they enter the pores of the column.

The target in data set [2] is T1, GH1 β-glucosidase from Spodoptera …. Kind of data set: SEC; dimer to monomers; 75 mM phosphate buffer pH 6 (P75), 5 °C; KD is the slope of [M]^2 versus [D] from peak areas. As to conditions: both partners purified.
Data set [3] has the same target. The experiment in a line: SEC; dimer to monomers; 50 mM phosphate buffer pH 6 (P50), 5 °C; KD is the slope of [M]^2 versus [D] from peak areas. To be noted: both partners purified.
Data set [4] has the same target. The experiment in a line: SEC; dimer to monomers; 5 mM phosphate buffer pH 6 (P5), 5 °C; KD is the slope of [M]^2 versus [D] from peak areas. As to conditions: both partners purified.
Data set [5] shares this target. Kind of data set: SEC; dimer to monomers; 100 mM phosphate buffer pH 6 (P100), 5 °C; two Superdex 200 HR10/300 GL columns in tandem; KD is the slope of [M]^2 versus [D] from peak areas at several protein concentrations. To be noted: both partners purified. This is another data set of the same source.
Data set [6] has the same target. The experiment in a line: SEC; dimer to monomers; 25 mM phosphate buffer pH 6 (P25), 5 °C; KD is the slope of [M]^2 versus [D] from peak areas. As to conditions: both partners purified.
Data set [7] has the same target. The experiment in a line: SEC-MALS; 90 μM Sfβgly in 100 mM sodium phosphate buffer pH 6 (P100) at 5 °C; two Superdex 200 columns in tandem. As to conditions: both partners purified.
Data set [8] deals with the molecule itself. Kind of data set: SEC; dimer to monomers; 100 mM phosphate buffer pH 6 (P100), 5 °C; two Superdex 200 HR10/300 GL columns in tandem; KD is the slope of [M]^2 versus [D] from peak areas at several protein concentrations.

B1: GH1 β-glucosidase from Spodoptera frugiperda (Sfβgly), wild-type (enzyme)
chain: QQRRFPDDFLFGTATASYQIEGAWDEDGKGENIWDYMVHNTPEVIRDLSNGDIAADSYHNYKRDVEMMRELGLDAYRFSLSWARILPTGMANEVNPAGIAFYNNYIDEMLKYNITPLITLYHWDLPQKLQELGGFANPLISDWFEDYARVVFENFGDRVKMFITFNEPREICFEGYGSATKAPILNATAMGAYLCAKNLVTAHAKAYYLYDREFRPVQGGQCGITISVNWFGPATPTPEDEMAAELRRQGEWGIYAHPIFSAEGGFPKELSDKIAEKSAQQGYPWSRLPEFTEEEKAFVRGTSDFFGVNHYTAFLVSATERKGPYPVPSLLDDVDTGSWADDSWLKSASAWLTLAPNSIHTALTHLNNLYNKPVFYITENGWSTDESRENSLIDDDRIQYYRASMESLLNCLDDGINLKGYMAWSLMDNFEWMEGYIERFGLYEVDFSDPARTRTPRKAAFVYKHIIKHRVVDYEYEPETMVMTIDEGH
modifications: Monomer given, self-associates to a C2 homodimer. Limits by convention from the 5CG0 entity; paper numbering = entity + 20 (precursor numbering) / Monomer given, self-associates to a C2 homodimer. …
For orientation: Kd means the concentration at which binding is half-saturated. A high value points to lower affinity. In general, stoichiometry N refers to a count of units in the complex or per binding partner. On to B1, for which the Kd worked out at 8 µM in data set [1]; 9.9 µM in data set [2]; 9.5 µM in data set [3]; 135 µM in data set [4]; 7 µM in data set [5]; 78 µM in data set [6]. The “stoichiometry N” value in data set [7] was 2.

B2: Sfβgly mutant N157S (enzyme)
chain: QQRRFPDDFLFGTATASYQIEGAWDEDGKGENIWDYMVHNTPEVIRDLSNGDIAADSYHNYKRDVEMMRELGLDAYRFSLSWARILPTGMANEVNPAGIAFYNNYIDEMLKYNITPLITLYHWDLPQKLQELGGFASPLISDWFEDYARVVFENFGDRVKMFITFNEPREICFEGYGSATKAPILNATAMGAYLCAKNLVTAHAKAYYLYDREFRPVQGGQCGITISVNWFGPATPTPEDEMAAELRRQGEWGIYAHPIFSAEGGFPKELSDKIAEKSAQQGYPWSRLPEFTEEEKAFVRGTSDFFGVNHYTAFLVSATERKGPYPVPSLLDDVDTGSWADDSWLKSASAWLTLAPNSIHTALTHLNNLYNKPVFYITENGWSTDESRENSLIDDDRIQYYRASMESLLNCLDDGINLKGYMAWSLMDNFEWMEGYIERFGLYEVDFSDPARTRTPRKAAFVYKHIIKHRVVDYEYEPETMVMTIDEGH
B2 came in with a Kd in data set [8] of 28 µM.

B3: Sfβgly mutant D166S (enzyme)
chain: QQRRFPDDFLFGTATASYQIEGAWDEDGKGENIWDYMVHNTPEVIRDLSNGDIAADSYHNYKRDVEMMRELGLDAYRFSLSWARILPTGMANEVNPAGIAFYNNYIDEMLKYNITPLITLYHWDLPQKLQELGGFANPLISDWFESYARVVFENFGDRVKMFITFNEPREICFEGYGSATKAPILNATAMGAYLCAKNLVTAHAKAYYLYDREFRPVQGGQCGITISVNWFGPATPTPEDEMAAELRRQGEWGIYAHPIFSAEGGFPKELSDKIAEKSAQQGYPWSRLPEFTEEEKAFVRGTSDFFGVNHYTAFLVSATERKGPYPVPSLLDDVDTGSWADDSWLKSASAWLTLAPNSIHTALTHLNNLYNKPVFYITENGWSTDESRENSLIDDDRIQYYRASMESLLNCLDDGINLKGYMAWSLMDNFEWMEGYIERFGLYEVDFSDPARTRTPRKAAFVYKHIIKHRVVDYEYEPETMVMTIDEGH
In turn, B3 displayed a Kd in data set [8] of 100 µM.

B4: Sfβgly mutant M210A (enzyme)
chain: QQRRFPDDFLFGTATASYQIEGAWDEDGKGENIWDYMVHNTPEVIRDLSNGDIAADSYHNYKRDVEMMRELGLDAYRFSLSWARILPTGMANEVNPAGIAFYNNYIDEMLKYNITPLITLYHWDLPQKLQELGGFANPLISDWFEDYARVVFENFGDRVKMFITFNEPREICFEGYGSATKAPILNATAAGAYLCAKNLVTAHAKAYYLYDREFRPVQGGQCGITISVNWFGPATPTPEDEMAAELRRQGEWGIYAHPIFSAEGGFPKELSDKIAEKSAQQGYPWSRLPEFTEEEKAFVRGTSDFFGVNHYTAFLVSATERKGPYPVPSLLDDVDTGSWADDSWLKSASAWLTLAPNSIHTALTHLNNLYNKPVFYITENGWSTDESRENSLIDDDRIQYYRASMESLLNCLDDGINLKGYMAWSLMDNFEWMEGYIERFGLYEVDFSDPARTRTPRKAAFVYKHIIKHRVVDYEYEPETMVMTIDEGH
B4: the Kd in data set [8] amounted to 3600 µM.

B5: Sfβgly mutant L214A (enzyme)
chain: QQRRFPDDFLFGTATASYQIEGAWDEDGKGENIWDYMVHNTPEVIRDLSNGDIAADSYHNYKRDVEMMRELGLDAYRFSLSWARILPTGMANEVNPAGIAFYNNYIDEMLKYNITPLITLYHWDLPQKLQELGGFANPLISDWFEDYARVVFENFGDRVKMFITFNEPREICFEGYGSATKAPILNATAMGAYACAKNLVTAHAKAYYLYDREFRPVQGGQCGITISVNWFGPATPTPEDEMAAELRRQGEWGIYAHPIFSAEGGFPKELSDKIAEKSAQQGYPWSRLPEFTEEEKAFVRGTSDFFGVNHYTAFLVSATERKGPYPVPSLLDDVDTGSWADDSWLKSASAWLTLAPNSIHTALTHLNNLYNKPVFYITENGWSTDESRENSLIDDDRIQYYRASMESLLNCLDDGINLKGYMAWSLMDNFEWMEGYIERFGLYEVDFSDPARTRTPRKAAFVYKHIIKHRVVDYEYEPETMVMTIDEGH
For B5, binding in data set [8] was characterised by a dissociation constant (Kd) of 5400 µM.

B6: Sfβgly mutant N112S (enzyme)
chain: QQRRFPDDFLFGTATASYQIEGAWDEDGKGENIWDYMVHNTPEVIRDLSNGDIAADSYHNYKRDVEMMRELGLDAYRFSLSWARILPTGMASEVNPAGIAFYNNYIDEMLKYNITPLITLYHWDLPQKLQELGGFANPLISDWFEDYARVVFENFGDRVKMFITFNEPREICFEGYGSATKAPILNATAMGAYLCAKNLVTAHAKAYYLYDREFRPVQGGQCGITISVNWFGPATPTPEDEMAAELRRQGEWGIYAHPIFSAEGGFPKELSDKIAEKSAQQGYPWSRLPEFTEEEKAFVRGTSDFFGVNHYTAFLVSATERKGPYPVPSLLDDVDTGSWADDSWLKSASAWLTLAPNSIHTALTHLNNLYNKPVFYITENGWSTDESRENSLIDDDRIQYYRASMESLLNCLDDGINLKGYMAWSLMDNFEWMEGYIERFGLYEVDFSDPARTRTPRKAAFVYKHIIKHRVVDYEYEPETMVMTIDEGH
Molecule B6 had a dissociation constant Kd in data set [8] of 1200 µM.
